Laboratory results from patent US20230322953A1 (HARBOUR BIOMED SHANGHAI, published 2023).

Columns and labels:
human BCMA = molecular target: T1, human BCMA (human, UniProt Q02223 1-184); test: FACS on NCI-H929 cells
T1 construct: whole, on cells; also called hBCMA; TNFRSF17
T1 sequence (looked up): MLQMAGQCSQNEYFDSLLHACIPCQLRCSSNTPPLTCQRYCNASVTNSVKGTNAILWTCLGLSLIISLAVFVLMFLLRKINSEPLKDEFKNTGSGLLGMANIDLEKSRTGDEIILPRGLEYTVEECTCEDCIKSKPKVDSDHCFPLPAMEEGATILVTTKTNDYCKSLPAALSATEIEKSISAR
Protocol: (§1) This example is intended to investigate the binding activity of anti-BCMA HCAb antibodies to human and cynomolgus monkey BCMAs. […] Specifically, HEK293T/hBCMA cells and HEK293T/cyno BCMA cells were digested and resuspended in a DMEM complete medium. In addition, NCI-H929 cell suspension was collected. The density of each of the three cells was adjusted to 1×10⁶ cells/mL. […] The cells were incubated at 4° C. for 1 h away from light. Thereafter, the cells in each well were rinsed twice with 100 μL of pre-cooled PBS, and centrifuged at 500 g at 4° C. for 5 min, and then the supernatant was discarded. […] The cells in each well were rinsed twice with 100 μL of pre-cooled PBS, and centrifuged at 500 g at 4° C. for 5 min, and then the supernatant was discarded. Finally, the cells in each well were resuspended in 200 μL of pre-cooled PBS. Fluorescence signal values were read using a BD FACS CANTOII flow cytometer or an ACEA NovoCyte flow cytometer, and the data were processed and analyzed using FlowJo v10 (FlowJo, LLC) software. The data were processed and analyzed by plotting using GraphPad Prism 8 software, and binding curves of the antibodies to target cells, EC₅₀ values and other parameters were obtained through four-parameter nonlinear fitting.

cynomolgus monkey BCMA = molecular target: T2, cynomolgus monkey BCMA (cynomolgus monkey, UniProt A0A2K5UD97 1-183); test: FACS on HEK293T/cyno BCMA cells
T2 construct: whole, on cells; also called cyno BCMA
T2 sequence (A0A2K5UD97 entry or part of it): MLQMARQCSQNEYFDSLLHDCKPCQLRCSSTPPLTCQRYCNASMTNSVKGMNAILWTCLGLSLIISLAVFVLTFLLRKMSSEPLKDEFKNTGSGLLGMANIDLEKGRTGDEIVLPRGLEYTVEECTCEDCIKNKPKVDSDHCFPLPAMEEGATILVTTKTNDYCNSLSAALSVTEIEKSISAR
Protocol: as §1

Row | Maximum MFI (human BCMA) | Maximum MFI (cynomolgus monkey BCMA) | EC50 (human BCMA) [nM] | Binder
1 | 53000 | 13000 | – | PR002301 (bispecific antibody, human IgG1, lambda, L234A L235A) light: QAVVTQEPSLTVSPGGTVTLTCRSSTGAVTTSNYANWVQQKPGQAPRGLIGGTNKRAPWTPARFSGSLLGDKAALTLLGAQPEDEAEYFCALWYSNLWVFGGGTKLTVLGQPKAAPSVTLFPPSSEELQANKATLVCLISDFYPGAVTVAWKADSSPVKAGVETTTPSKQSNNKYAASSYLSLTPEQWKSHRSYSCQVTHEGSTVEKTVAPTECS heavy: EVQLLESGGGLVQPGGSLRLSCAASGFTFSTYAMNWVRQAPGKGLEWVSRIRSKYNNYATYYADSVKDRFTISRDDSKSTLYLQMNSLRAEDTAVYYCVRHGNFGNSYVSWFAYWGQGTLVTVSSASTKGPSVFPLAPSSKSTSGGTAALGCLVKDYFPEPVTVSWNSGALTSGVHTFPAVLQSSGLYSLSSVVTVPSSSLGTQTYICNVNHKPSNTKVDKKVEPKSCDKTHTCPPCPAPEAAGGPSVFLFPPKPKDTLMISRTPEVTCVVVDVSHEDPEVKFNWYVDGVEVHNAKTKPREEQYNSTYRVVSVLTVLHQDWLNGKEYKCKVSNKALGAPIEKTISKAKGQPREPQVYTLPPCREEMTKNQVSLWCLVKGFYPSDIAVEWESNGQPENNYKTTPPVLDSDGSFFLYSKLTVDKSRWQQGNVFSCSVMHEALHNHYTQKSLSLSPGK EVQLLESGGGLVQPGGSLRLSCAASGFTFSSYAMIWVRQAPGKGLEWVSGISESGGSTYYADSVKGRFTISRDNSKNTLYLQMNSLRAEDTAVYFCVKDLDDILTGYYKDYWGQGTLVTVSSRTGGGGSGGGGSGGGGSGGGGSGGGGSKLEVQLLESGGGLVQPGGSLRLSCAASGFTFSSYAMIWVRQAPGKGLEWVSGISESGGSTYYADSVKGRFTISRDNSKNTLYLQMNSLRAEDTAVYFCVKDLDDILTGYYKDYWGQGTLVTVSSASEPKSSDKTHTCPPCPAPEAAGGPSVFLFPPKPKDTLMISRTPEVTCVVVDVSHEDPEVKFNWYVDGVEVHNAKTKPREEQYNSTYRVVSVLTVLHQDWLNGKEYKCKVSNKALGAPIEKTISKAKGQPREPQVCTLPPSREEMTKNQVSLSCAVKGFYPSDIAVEWESNGQPENNYKTTPPVLDSDGSFFLVSKLTVDKSRWQQGNVFSCSVMHEALHNHYTQKSLSLSPGK
2 | 61300 | 42000 | 2.09 | PR002310 (bispecific antibody, human IgG1, lambda, L234A L235A) light: QAVVTQEPSLTVSPGGTVTLTCRSSTGAVTTSNYANWVQQKPGQAPRGLIGGTNKRAPWTPARFSGSLLGDKAALTLLGAQPEDEAEYFCALWYSNLWVFGGGTKLTVLGQPKAAPSVTLFPPSSEELQANKATLVCLISDFYPGAVTVAWKADSSPVKAGVETTTPSKQSNNKYAASSYLSLTPEQWKSHRSYSCQVTHEGSTVEKTVAPTECS heavy: EVQLLESGGGLVQPGGSLRLSCAASGFTFSTYAMNWVRQAPGKGLEWVSRIRSKYNNYATYYADSVKDRFTISRDDSKSTLYLQMNSLRAEDTAVYYCVRHGNFGNSYVSWFAYWGQGTLVTVSSASTKGPSVFPLAPSSKSTSGGTAALGCLVKDYFPEPVTVSWNSGALTSGVHTFPAVLQSSGLYSLSSVVTVPSSSLGTQTYICNVNHKPSNTKVDKKVEPKSCDKTHTCPPCPAPEAAGGPSVFLFPPKPKDTLMISRTPEVTCVVVDVSHEDPEVKFNWYVDGVEVHNAKTKPREEQYNSTYRVVSVLTVLHQDWLNGKEYKCKVSNKALGAPIEKTISKAKGQPREPQVYTLPPCREEMTKNQVSLWCLVKGFYPSDIAVEWESNGQPENNYKTTPPVLDSDGSFFLYSKLTVDKSRWQQGNVFSCSVMHEALHNHYTQKSLSLSPGK EVQLVETGGGLIQPGGSLRLSCAASGFTVSDNYMTWVRQAPGKGLEWVSVIFSGGNTYYADSVKGRFTISRDNAKNTLYLQMNSLRAEDTALYYCARRNYDDTRGTDVFDIWGQGTMVTVSSRTGGGGSGGGGSGGGGSGGGGSGGGGSKLEVQLVETGGGLIQPGGSLRLSCAASGFTVSDNYMTWVRQAPGKGLEWVSVIFSGGNTYYADSVKGRFTISRDNAKNTLYLQMNSLRAEDTALYYCARRNYDDTRGTDVFDIWGQGTMVTVSSASEPKSSDKTHTCPPCPAPEAAGGPSVFLFPPKPKDTLMISRTPEVTCVVVDVSHEDPEVKFNWYVDGVEVHNAKTKPREEQYNSTYRVVSVLTVLHQDWLNGKEYKCKVSNKALGAPIEKTISKAKGQPREPQVCTLPPSREEMTKNQVSLSCAVKGFYPSDIAVEWESNGQPENNYKTTPPVLDSDGSFFLVSKLTVDKSRWQQGNVFSCSVMHEALHNHYTQKSLSLSPGK
3 | 63900 | 39300 | 1.82 | PR002308 (bispecific antibody, human IgG1, lambda, L234A L235A) light: QAVVTQEPSLTVSPGGTVTLTCRSSTGAVTTSNYANWVQQKPGQAPRGLIGGTNKRAPWTPARFSGSLLGDKAALTLLGAQPEDEAEYFCALWYSNLWVFGGGTKLTVLGQPKAAPSVTLFPPSSEELQANKATLVCLISDFYPGAVTVAWKADSSPVKAGVETTTPSKQSNNKYAASSYLSLTPEQWKSHRSYSCQVTHEGSTVEKTVAPTECS heavy: EVQLLESGGGLVQPGGSLRLSCAASGFTFSTYAMNWVRQAPGKGLEWVSRIRSKYNNYATYYADSVKDRFTISRDDSKSTLYLQMNSLRAEDTAVYYCVRHGNFGNSYVSWFAYWGQGTLVTVSSASTKGPSVFPLAPSSKSTSGGTAALGCLVKDYFPEPVTVSWNSGALTSGVHTFPAVLQSSGLYSLSSVVTVPSSSLGTQTYICNVNHKPSNTKVDKKVEPKSCDKTHTCPPCPAPEAAGGPSVFLFPPKPKDTLMISRTPEVTCVVVDVSHEDPEVKFNWYVDGVEVHNAKTKPREEQYNSTYRVVSVLTVLHQDWLNGKEYKCKVSNKALGAPIEKTISKAKGQPREPQVYTLPPCREEMTKNQVSLWCLVKGFYPSDIAVEWESNGQPENNYKTTPPVLDSDGSFFLYSKLTVDKSRWQQGNVFSCSVMHEALHNHYTQKSLSLSPGK EVQLVETGGGLIQPGGSLRLSCAASGFTVSDNYMTWVRQAPGKGLEWVSVIFSGGNTYYADSVKGRFTISRDNAKNTLYLQMNSLRAEDTALYYCARRNYDDTRGTDVFDIWGQGTMVTVSSRTGGGGSKLEVQLVETGGGLIQPGGSLRLSCAASGFTVSDNYMTWVRQAPGKGLEWVSVIFSGGNTYYADSVKGRFTISRDNAKNTLYLQMNSLRAEDTALYYCARRNYDDTRGTDVFDIWGQGTMVTVSSASEPKSSDKTHTCPPCPAPEAAGGPSVFLFPPKPKDTLMISRTPEVTCVVVDVSHEDPEVKFNWYVDGVEVHNAKTKPREEQYNSTYRVVSVLTVLHQDWLNGKEYKCKVSNKALGAPIEKTISKAKGQPREPQVCTLPPSREEMTKNQVSLSCAVKGFYPSDIAVEWESNGQPENNYKTTPPVLDSDGSFFLVSKLTVDKSRWQQGNVFSCSVMHEALHNHYTQKSLSLSPGK
